{"source": "paper PMC4559421", "about": "“Interaction of Yna1 and Yna2 Is Required for Nuclear Accumulation and Transcriptional Activation of the Nitrate Assimilation Pathway in the Yeast Hansenula polymorpha”", "conditions_in_all_cases": "protein: recombinant; tags: His; chain copies: 2; label: 32P end label", "key": {"HIS-Yna2p(1-180) [1]": {"molecular_target": "T1, HIS-Yna2p(1-180) (Hansenula polymorpha (syn. Pichia …, UniProt Q9HFM7 1-180))", "T1 sequence": "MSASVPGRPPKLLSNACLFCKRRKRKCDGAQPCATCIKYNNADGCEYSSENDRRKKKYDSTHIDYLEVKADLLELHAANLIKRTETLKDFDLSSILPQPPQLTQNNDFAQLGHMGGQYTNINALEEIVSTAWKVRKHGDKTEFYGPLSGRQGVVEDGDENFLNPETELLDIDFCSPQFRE", "assay": "EMSA; poly(dIdC); no detectable complex; EMSA: 75 ng protein in 10 ul KCl 1 mM, spermidine 80 mM (so in the source), 0.1 mg/ml poly(dIdC), on ice then 30 min at room temperature with probe; 6% PAGE, 50% glycerol, 0.5x TBE; pH not stated"}, "HIS-Yna1p(1-185) [2]": {"molecular_target": "T2, HIS-Yna1p(1-185) (Hansenula polymorpha (syn. Pichia …, UniProt O93984 1-185))", "T2 sequence": "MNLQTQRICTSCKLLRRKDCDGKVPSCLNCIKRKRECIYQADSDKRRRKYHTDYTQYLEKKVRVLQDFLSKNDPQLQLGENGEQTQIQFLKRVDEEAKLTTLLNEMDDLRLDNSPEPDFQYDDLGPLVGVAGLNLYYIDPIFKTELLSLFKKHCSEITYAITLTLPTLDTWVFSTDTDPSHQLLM", "assay": "EMSA; poly(dIdC); complex abrogated by 1x-2x unlabelled probe; less stable than with probe 1; EMSA: 75 ng protein in 10 ul KCl 1 mM, spermidine 80 mM (so in the source), 0.1 mg/ml poly(dIdC), on ice then 30 min at room temperature with probe; 6% PAGE, 50% glycerol, 0.5x TBE; pH not stated"}, "HIS-Yna1p(1-185) [3]": {"molecular_target": "T2, HIS-Yna1p(1-185)", "assay": "EMSA; poly(dIdC); binding disrupted; EMSA: 75 ng protein in 10 ul KCl 1 mM, spermidine 80 mM (so in the source), 0.1 mg/ml poly(dIdC), on ice then 30 min at room temperature with probe; 6% PAGE, 50% glycerol, 0.5x TBE; pH not stated"}, "HIS-Yna1p(1-185) [4]": {"molecular_target": "T2, HIS-Yna1p(1-185)", "assay": "EMSA; poly(dIdC); complex formation disrupted; EMSA: 75 ng protein in 10 ul KCl 1 mM, spermidine 80 mM (so in the source), 0.1 mg/ml poly(dIdC), on ice then 30 min at room temperature with probe; 6% PAGE, 50% glycerol, 0.5x TBE; pH not stated"}, "HIS-Yna2p(1-180) [5]": {"molecular_target": "T1, HIS-Yna2p(1-180)", "assay": "EMSA; poly(dIdC); EMSA: 75 ng protein in 10 ul KCl 1 mM, spermidine 80 mM (so in the source), 0.1 mg/ml poly(dIdC), on ice then 30 min at room temperature with probe; 6% PAGE, 50% glycerol, 0.5x TBE; pH not stated"}, "HIS-Yna1p(1-185) [6]": {"molecular_target": "T2, HIS-Yna1p(1-185)", "assay": "EMSA; poly(dIdC); complex diminished by 1x-2x unlabelled probe; EMSA: 75 ng protein in 10 ul KCl 1 mM, spermidine 80 mM (so in the source), 0.1 mg/ml poly(dIdC), on ice then 30 min at room temperature with probe; 6% PAGE, 50% glycerol, 0.5x TBE; pH not stated"}}, "data": [{"binder": "YNT1 probe 2 (dsDNA) DNA 1: GGCTAGCATCCCGCTCATCGGAGAATATTCTGC DNA 2: GCAGAATATTCTCCGATGAGCGGGATGCTAGCC", "values": [{"measurement": "binding result", "setting": "HIS-Yna2p(1-180) [1]", "value": "no binding"}, {"measurement": "binding result", "setting": "HIS-Yna1p(1-185) [2]", "value": "binds"}]}, {"binder": "YNT1 probe 2 m2 (dsDNA) DNA 1: GGCTAGCATCCCGCTCATATTAGAATATTCTGC DNA 2: GCAGAATATTCTAATATGAGCGGGATGCTAGCC", "values": [{"measurement": "binding result", "setting": "HIS-Yna1p(1-185) [3]", "value": "no binding"}]}, {"binder": "YNT1 probe 2 m1 (dsDNA) DNA 1: GGCTAGCATCAATCTCATCGGAGAATATTCTGC DNA 2: GCAGAATATTCTCCGATGAGATTGATGCTAGCC", "values": [{"measurement": "binding result", "setting": "HIS-Yna1p(1-185) [4]", "value": "no binding"}]}, {"binder": "YNT1 probe 1 (dsDNA) DNA 1: CCCGCTCATCGGAGAATATTCTGCTCAAAATTAAGGATGCCCAT DNA 2: ATGGGCATCCTTAATTTTGAGCAGAATATTCTCCGATGAGCGGG", "values": [{"measurement": "binding result", "setting": "HIS-Yna2p(1-180) [5]", "value": "binds"}, {"measurement": "binding result", "setting": "HIS-Yna1p(1-185) [6]", "value": "binds"}]}]}
